The results in this text go back to the supplement of paper PMC10899765.

Conditions in all cases: 20 nM; 72 h
For data set [1], the system named is MCF10A. Nature of the data set: 5+ nucleoli phenotype percent effect (relative to siNT 0% and siKIF11 100%); higher = more cells with five or more nucleoli. The protocol:
(§1)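 After 72 h, cells were fixed and stained with Hoechst and anti-fibrillarin, and nucleoli per nucleus were counted with CellProfiler. Values are plate-adjusted percent effect for the one-nucleolus and 5+ nucleoli phenotypes, normalised to siNT (0%) and to the positive controls siNOL11 or siKIF11 (100%), as the mean of biological triplicates. Percent viability is the nuclei count relative to siNT.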

The test system of data set [2] is MCF10A. Nature of the data set: one-nucleolus phenotype percent effect (relative to siNT 0% and siNOL11 100%); higher = more cells with one nucleolus (ribosome biogenesis inhibition). Here is the method: as §1
The subject of data set [3] is MCF10A. Nature of the data set: percent viability (nuclei count relative to siNT); higher = more viable cells. Here is the method: as §1

With GCUGACAGCAGGGCUGGCCGCU [hsa-miR-4526], the “5+ nucleoli phenotype percent effect” value in the data set on MCF10A [1] was determined as 16.9%. Also, the “one-nucleolus phenotype percent effect” value with MCF10A [2] is -0.679%. Besides, the percent viability in the data set with MCF10A [3] came out at 59.2%.

On to CUUCUCUUCUCUCCUUCCCAG [hsa-miR-6809-3p], for which the “5+ nucleoli phenotype percent effect” value in the data set with MCF10A [1] was -23.7%. Also, the “one-nucleolus phenotype percent effect” value with MCF10A [2] stood at 17.9%. In addition, the percent viability with MCF10A [3] was determined as 31%.

Consider UGUGAUAUCGUGCUUCCUGGGA [hsa-miR-3689f], for which the “5+ nucleoli phenotype percent effect” value in the data set on MCF10A [1] amounted to 17.5%. In addition, the “one-nucleolus phenotype percent effect” value in the data set with MCF10A [2] was -21.8%. Besides, the percent viability in the data set with MCF10A [3] is 109%.

On to “CUCCUCUGUUUUCUUUCCUAG [hsa-miR-6780a-3p]”, for which the “5+ nucleoli phenotype percent effect” value with MCF10A [1] is -34.9%. Besides, the “one-nucleolus phenotype percent effect” value with MCF10A [2] stood at 25.3%. The percent viability in the data set on MCF10A [3] was determined as 34.4%.

Consider UCCUCUUCUCCCUCCUCCCAG [hsa-miR-877-3p], for which, in the data set on MCF10A [1], the “5+ nucleoli phenotype percent effect” value was -15.4%. Moreover, the “one-nucleolus phenotype percent effect” value in the data set on MCF10A [2] stood at 6.33%. In the data set with MCF10A [3], the percent viability stood at 59%.

Consider “CCUCUGAAAUUCAGUUCUUCAG [hsa-miR-146a-3p]”, for which the “5+ nucleoli phenotype percent effect” value in the data set with MCF10A [1] was 27.1%. Moreover, the “one-nucleolus phenotype percent effect” value in the data set with MCF10A [2] is -13.5%. The percent viability with MCF10A [3] turned out to be 125%.

In the case of “CAAAAACUGCAGUUACUUUUGU [hsa-miR-548am-3p]”, the “5+ nucleoli phenotype percent effect” value with MCF10A [1] was 42.5%. Also, the “one-nucleolus phenotype percent effect” value with MCF10A [2] is -23.3%. Also, the percent viability with MCF10A [3] stood at 96%.

In the case of CUGGCAGGGGGAGAGGUA [hsa-miR-7150], the “5+ nucleoli phenotype percent effect” value in the data set on MCF10A [1] turned out to be 0.85%. For the same sequence, in the data set with MCF10A [2], the “one-nucleolus phenotype percent effect” value stood at 46.7%. Further, the percent viability with MCF10A [3] was 43.9%.

For “CGUGGAUAUUCCUUCUAUGUUU [hsa-miR-376b-5p]”, the “5+ nucleoli phenotype percent effect” value in the data set on MCF10A [1] is -14%. Moreover, in the data set on MCF10A [2], the “one-nucleolus phenotype percent effect” value was determined as 9.58%. Further, in the data set with MCF10A [3], the percent viability was 22%.

For the sequence UGGGAGGAGGGGAUCUUGGG [hsa-miR-7106-5p], the “5+ nucleoli phenotype percent effect” value in the data set with MCF10A [1] is 21.2%. For the same sequence, in the data set on MCF10A [2], the “one-nucleolus phenotype percent effect” value is -7.27%. For the same sequence, the percent viability in the data set with MCF10A [3] is 34.9%.

For the sequence CAGGGCUCAGGGAUUGGAUGGAG [hsa-miR-5088], in the data set with MCF10A [1], the “5+ nucleoli phenotype percent effect” value worked out at 20.4%. The “one-nucleolus phenotype percent effect” value with MCF10A [2] is -7.65%. Moreover, the percent viability in the data set with MCF10A [3] amounted to 77.7%.

As for “UAAGUGCUUCCAUGUUUCAGUGG [hsa-miR-302c-3p]”, the “5+ nucleoli phenotype percent effect” value with MCF10A [1] amounted to 52.1%. For the same sequence, the “one-nucleolus phenotype percent effect” value in the data set on MCF10A [2] is -16.2%. For the same sequence, the percent viability with MCF10A [3] was found to be 78%.

For the sequence CCAUGGAUCUCCAGGUGGGU [hsa-miR-490-5p], the “5+ nucleoli phenotype percent effect” value in the data set with MCF10A [1] was found to be 16.2%. Also, the “one-nucleolus phenotype percent effect” value in the data set on MCF10A [2] amounted to 0.865%. In the data set on MCF10A [3], the percent viability came to 63.5%.

Regarding AGUGAAUGAUGGGUUCUGACC [hsa-miR-1257], the “5+ nucleoli phenotype percent effect” value in the data set on MCF10A [1] is -35.8%. Further, the “one-nucleolus phenotype percent effect” value in the data set with MCF10A [2] is 45.3%. Moreover, the percent viability in the data set with MCF10A [3] amounted to 25.9%.

As to ACAGCCCAGCAGUUAUCACGGG [hsa-miR-5685], in the data set with MCF10A [1], the “5+ nucleoli phenotype percent effect” value was -0.657%. The “one-nucleolus phenotype percent effect” value with MCF10A [2] is -1.32%. In addition, the percent viability with MCF10A [3] stood at 57.8%.

Take “UCUCUGAGCAAGGCUUAACACC [hsa-miR-4653-5p]”: in the data set on MCF10A [1], the “5+ nucleoli phenotype percent effect” value is -12.4%. Also, the “one-nucleolus phenotype percent effect” value with MCF10A [2] worked out at 18.9%. Besides, the percent viability in the data set with MCF10A [3] stood at 50.6%.

Turning to CGCGGGCGCUCCUGGCCGCCGCC [hsa-miR-4767], the “5+ nucleoli phenotype percent effect” value with MCF10A [1] was found to be 26.9%. Moreover, in the data set with MCF10A [2], the “one-nucleolus phenotype percent effect” value is -12.9%. The percent viability in the data set with MCF10A [3] was found to be 58.8%.

For AACAGGUGACUGGUUAGACAA [hsa-miR-552], the “5+ nucleoli phenotype percent effect” value in the data set with MCF10A [1] was found to be 36.6%. Besides, the “one-nucleolus phenotype percent effect” value in the data set with MCF10A [2] is -33.6%. Besides, the percent viability in the data set with MCF10A [3] was found to be 123%.

Consider “AGCUCUGCUGCUCACUGGCAGU [hsa-miR-3194-3p]”, for which, in the data set on MCF10A [1], the “5+ nucleoli phenotype percent effect” value turned out to be 6.75%. Also, in the data set with MCF10A [2], the “one-nucleolus phenotype percent effect” value was 1.77%. For the same sequence, in the data set with MCF10A [3], the percent viability was found to be 22.1%.

As for ACUGGACUAGGAGUCAGAAGG [hsa-miR-378i], in the data set on MCF10A [1], the “5+ nucleoli phenotype percent effect” value is -12.9%. Moreover, the “one-nucleolus phenotype percent effect” value in the data set with MCF10A [2] is 4.21%. In the data set with MCF10A [3], the percent viability was 32.1%.

Regarding AAACUCUACUUGUCCUUCUGAGU [hsa-miR-618], in the data set with MCF10A [1], the “5+ nucleoli phenotype percent effect” value is -16.4%. Also, the “one-nucleolus phenotype percent effect” value with MCF10A [2] turned out to be 10.9%. Also, the percent viability with MCF10A [3] came to 46.5%.

Consider UCCUGUCCCUGUCUCCUACAG [hsa-miR-6748-3p], for which, in the data set with MCF10A [1], the “5+ nucleoli phenotype percent effect” value was determined as 17%. The “one-nucleolus phenotype percent effect” value with MCF10A [2] is -15.9%. In the data set on MCF10A [3], the percent viability is 47%.

As to “UGGCAGUUACUUUUGCACCAG [hsa-miR-548au-3p]”, the “5+ nucleoli phenotype percent effect” value with MCF10A [1] is -17.4%. For the same sequence, the “one-nucleolus phenotype percent effect” value with MCF10A [2] stood at 31.4%. In addition, the percent viability in the data set with MCF10A [3] worked out at 5.53%.

With ACCUGUCUGUGGAAAGGAGCUA [hsa-miR-4421], the “5+ nucleoli phenotype percent effect” value in the data set on MCF10A [1] is -6.29%. For the same sequence, the “one-nucleolus phenotype percent effect” value in the data set with MCF10A [2] is 15.9%. For the same sequence, the percent viability in the data set on MCF10A [3] stood at 30.7%.
